Reference: US20230242902A1, “A HIGHLY ERROR-PRONE […] R[…] FOR TARGETED CONTINUOUS EVOLUTION IN VIVO” (The Regents of the University of California, priority 2017, published 2023)
Positions count from the first letter of the chain named. Names and notes keep the numbering of the source.

B1: S693R: TP-DNAP1 variant (protein)
chain: MDYKDKALNDLRNVYADFDSLPLDFRQILIKDRATLLQKEDVEKKILERQEDAKKYAEYLKQSEIPERISLPNIKRHKGVSISFEETSEDMVLEPRPFIFDGLNIRCFRRETIFSLKNKILNMVKESSSFKNVSRQSVSFMYFKIFNKGKVIASTKSVNIYEDKIDERLEDLCNNFDDVLKKIIDVTYGYESLFVSETYSYVIFYAKSIYFPQPRCVNNWGNNIPNILTFDSFKLFTANKNNVSCIKQCSRFLWQKDFNTLEEMIEYKNGNICIVTPQLHINDVRDIKSFNDIRLYSESPIKTFSVIDNTITYLFYFKEHLGVIFNITKSRHDRRVTKFSPLSKFSDVKNITVCFDIESYFDPEKESNQVNIPFICCASIIYNKVIGNIVDFEGRDCVAQMIEYVVDICGELNISSVELIAHNGGGYDFHYILSSMYNPAAIKNILIRNNSFISFNFAHDGVKFSVKDSYSFLLCSLANASKAFLNEETFKKTDFPHHDLKTADDLYKVYKEWSSVNTEINHVVEKEKLLITSEHIVNFTKNDKSKTLIEWSKDYCRNDVLVLSKVWLEFKNAVEDIFNCELVDQTMTLAGLSYKLFQANMPFDVELRHPNKEDYFNMREALIGGRCISVNGIYKDVLCLDVKSLYPASMAFYDQPYGSFKRVSSRPKDELGIYYVRVTPNRNNKSNFFPIRRHNKITYNNFEESTYIAWYTNVDIDIGLSEGHNIEYIPFDSYGNIGYSWSKKGKIFEKYIKDVLYKLKIKYEKQNNKVKRNVIKIIMNSLWGKFAQKWVNFEYFIKSEDDIDFESEEAYKIWDTDFMLIKKIKESTYSSKPIQNGVFTLSWARYHMKSIWDAGAKEGAECIYSDTDSIFVHKEHFKKNAKFMLNGLKVPIIGSEVGQLELECEFDKLLCAGKKQYMGFYTYFQDGKPCIKEKKRFKGIPSNYIIPELYAHLLSGADKEAKIQFLKFRREWGSVKGYIENKTVKAT
B2: K696G: TP-DNAP1 variant (protein)
chain: B1 chain with R693S, K696G
B3: E298G, S305F: TP-DNAP1 variant (protein)
chain: B1 chain with E298G, S305F, R693S
B4: E704K: TP-DNAP1 variant (protein)
chain: B1 chain with R693S, E704K
B5: E704D: TP-DNAP1 variant (protein)
chain: B1 chain with R693S, E704D
B6: S693Q: TP-DNAP1 variant (protein)
chain: B1 chain with R693Q
B7: E703H: TP-DNAP1 variant (protein)
chain: B1 chain with R693S, E703H
B8: E704M: TP-DNAP1 variant (protein)
chain: B1 chain with R693S, E704M
B9: T698A: TP-DNAP1 variant (protein)
chain: B1 chain with R693S, T698A
B10: N695S: TP-DNAP1 variant (protein)
chain: B1 chain with R693S, N695S
B11: S705L: TP-DNAP1 variant (protein)
chain: B1 chain with R693S, S705L
B12: K696M: TP-DNAP1 variant (protein)
chain: B1 chain with R693S, K696M
B13: T698L: TP-DNAP1 variant (protein)
chain: B1 chain with R693S, T698L
B14: T706R: TP-DNAP1 variant (protein)
chain: B1 chain with R693S, T706R
B15: S705R: TP-DNAP1 variant (protein)
chain: B1 chain with R693S, S705R
B16: K696S, E704V: TP-DNAP1 variant (protein)
chain: B1 chain with R693S, K696S, E704V
B17: N695F: TP-DNAP1 variant (protein)
chain: B1 chain with R693S, N695F
B18: H694T: TP-DNAP1 variant (protein)
chain: B1 chain with R693S, H694T
B19: E703R: TP-DNAP1 variant (protein)
chain: B1 chain with R693S, E703R
B20: T706W: TP-DNAP1 variant (protein)
chain: B1 chain with R693S, T706W
B21: T706G: TP-DNAP1 variant (protein)
chain: B1 chain with R693S, T706G
B22: E704N: TP-DNAP1 variant (protein)
chain: B1 chain with R693S, E704N
B23: I708A: TP-DNAP1 variant (protein)
chain: B1 chain with R693S, I708A
B24: T706P: TP-DNAP1 variant (protein)
chain: B1 chain with R693S, T706P
B25: T706Q: TP-DNAP1 variant (protein)
chain: B1 chain with R693S, T706Q
B26: K696T: TP-DNAP1 variant (protein)
chain: B1 chain with R693S, K696T
B27: E703W: TP-DNAP1 variant (protein)
chain: B1 chain with R693S, E703W
B28: E704G: TP-DNAP1 variant (protein)
chain: B1 chain with R693S, E704G
B29: N695E: TP-DNAP1 variant (protein)
chain: B1 chain with R693S, N695E
B30: H694I: TP-DNAP1 variant (protein)
chain: B1 chain with R693S, H694I
B31: N695Q: TP-DNAP1 variant (protein)
chain: B1 chain with R693S, N695Q
B32: K696Y: TP-DNAP1 variant (protein)
chain: B1 chain with R693S, K696Y
B33: E298H: TP-DNAP1 variant (protein)
chain: B1 chain with E298H, R693S
B34: E704I: TP-DNAP1 variant (protein)
chain: B1 chain with R693S, E704I
B35: S705F: TP-DNAP1 variant (protein)
chain: B1 chain with R693S, S705F
B36: K696C: TP-DNAP1 variant (protein)
chain: B1 chain with R693S, K696C
B37: T698M: TP-DNAP1 variant (protein)
chain: B1 chain with R693S, T698M
B38: E298G: TP-DNAP1 variant (protein)
chain: B1 chain with E298G, R693S
B39: N695H: TP-DNAP1 variant (protein)
chain: B1 chain with R693S, N695H

What follows are molecules tested on p1 (assay: p1 copy number by p1-encoded mKate2 fluorescence). Details: OR-Y24, measured in triplicate.
Assay type: cell-based, S. cerevisiae
Outline: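 p1 copy number came from mKate2 fluorescence of saturated OR-Y24 cultures (triplicates, regrown from 1:10,000), read by flow cytometry and converted through a linear curve calibrated by qPCR (LEU2 against genomic LEU3). For small-scale tests, OD600-normalized plate-reader fluorescence (588/633 nm) was scaled to a w.t. TP-DNAP1 control.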

Molecule | Mean fold-increase over w.t. (p1 copy number)
B1 | 2.09 fold
B2 | 2.11 fold
B3 | 2.06 fold
B4 | 1.8 fold
B5 | 1.89 fold
B6 | 2.22 fold
B7 | 1.53 fold
B8 | 2.02 fold
B9 | 2.02 fold
B10 | 1.82 fold
B11 | 1.98 fold
B12 | 1.71 fold
B13 | 2 fold
B14 | 2 fold
B15 | 1.84 fold
B16 | 1.86 fold
B17 | 1.44 fold
B18 | 1.92 fold
B19 | 1.84 fold
B20 | 1.73 fold

Molecule | Mean fold-increase over w.t. (p1 copy number)
B21 | 1.72 fold
B22 | 1.85 fold
B23 | 2.55 fold
B24 | 1.73 fold
B25 | 2.92 fold
B26 | 2.12 fold
B27 | 1.72 fold
B28 | 1.75 fold
B29 | 2.34 fold
B30 | 1.78 fold
B31 | 1.68 fold
B32 | 1.49 fold
B33 | 2.57 fold
B34 | 1.35 fold
B35 | 1.76 fold
B36 | 1.87 fold
B37 | 1.75 fold
B38 | 2.64 fold
B39 | 1.76 fold
